Key:
[1] = biological target: T1, Brk phosphorylation of p27 (Homo sapiens, UniProt P46527+Q13882); assay: In vitro Brk phosphorylation of p27 with competitor, pY88/pY74 immunoblot; assay type: biochemical; settings: increasing amounts of competitor
T1 construct: were incubated with p27 before the addition of full length Brk and ATP; We incubated full length p27 with Src or Brk in the presence of ATP; purchased SignalChem (GST-PTK6/Brk) or Invitrogen (His-PTK6/Brk); host or cells: p27 made in house in E. coli
Procedure: FIGS. 3A-3D: SH3:PxxP interaction is required for p27 Y88 phosphorylation. (FIG. 3A) p27 and Brk were incubated with ATP and with increasing concentrations of the PxxP competitor, F58-106, followed by immunoblot analysis with pY88, pY74 and p27 antibodies. Lane 5: +equimolar amount of F58-106 and p27, lane 6: ++2.5×F58-106, lane 7: +++5×F58-106, lane 8: ++++10×F58-106. (FIG. 3B) GST-Brk, p27 and F58-106 were incubated, immunoprecipitated with GST antibodies, followed by immunblot analysis with GST or p27 antibodies. (FIG. 3C) Increasing amounts of GST-SH3, GST-SH2 or GST peptides were incubated with p27, followed by immunoblot analysis with pY88, pY74, p27 and GST antibodies. Lanes 3, 5, 7: 2.5× competitor, lanes 4, 6, […]: 5× competitor. (FIG. 3D) GST-SH3, GST-SH2 or GST peptides were incubated with p27 or ΔK1/K3, followed by metal agarose chromatography and immunoblot analysis with GST and p27 antibodies. Loading control: GST peptides added to the reaction which are not representative of association.
FIGS. 8A-8G: Alt Brk (SEQ ID NO: 17) acts as an endogenous inhibitor of Brk. […]
To directly verify this, we expressed a Flag-tagged Alt-Brk in bacteria and purified this 15 Kd protein (FIG. 8A). When p27 was incubated with Brk, Y88 and Y74 phosphorylation was detected by immunoblot analysis (FIG. 8A, lane 3). […]

[2] = system: MCF7-ALT cells; assay: Long-term proliferation arrest at IC100 (FIG. 15A); assay type: cell-based, human; settings: IC100 Palbociclib, doxycycline induced ALT, replenished every two days
Procedure: FIGS. 15A-15C: ALT and PD treatment increases senescence, a clinical goal. FIG. 15A: MCF7-ALT cells were treated with IC100 concentration of Palbociclib (PD) or doxycycline to induce ALT. Drugs were replenished every two days and proliferation was determined by cell counting as indicated. Proliferation rates were standardized to the rate of proliferation seen in DMSO treated cells (control). PD treated cells were arrested for 10 days, before escape (proliferation) was detected. ALT expressing cells were arrested for 18 days before escape (proliferation) was detected. ALT expressing and PD treated cells were arrested for 30 days, with no escape detected. […] Proliferation was assessed by counting. […] Viability was measured by trypan blue staining and the ALT expressing, PD treated cells that weren't growing were viable. […]
MCF7-ALT cells were treated with a IC100 concentration of Palbociclib (PD) or doxycycline to induce ALT. Drugs were replenished every two days and proliferation was determined by cell counting as indicated. […] PD treated cells were arrested for 10 days, before escape (proliferation) was detected. ALT expressing cells were arrested for 18 days before escape (proliferation) was detected. ALT expressing and PD treated cells were arrested for 30 days, with no escape detected. […] Proliferation was assessed by counting. […]

T1 sequence (Q13882 whole entry): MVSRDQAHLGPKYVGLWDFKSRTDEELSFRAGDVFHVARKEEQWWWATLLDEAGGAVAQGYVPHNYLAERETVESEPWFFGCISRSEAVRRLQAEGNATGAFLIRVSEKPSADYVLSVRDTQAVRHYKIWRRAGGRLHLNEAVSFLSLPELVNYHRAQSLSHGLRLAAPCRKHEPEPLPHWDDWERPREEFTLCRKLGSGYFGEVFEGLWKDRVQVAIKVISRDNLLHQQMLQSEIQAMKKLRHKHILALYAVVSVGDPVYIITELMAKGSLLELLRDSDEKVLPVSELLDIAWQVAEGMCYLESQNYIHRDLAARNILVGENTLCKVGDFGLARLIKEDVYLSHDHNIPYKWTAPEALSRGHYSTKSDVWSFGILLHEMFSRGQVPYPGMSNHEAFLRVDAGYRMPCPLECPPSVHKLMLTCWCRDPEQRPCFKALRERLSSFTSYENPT
T1 sequence (P46527 whole entry): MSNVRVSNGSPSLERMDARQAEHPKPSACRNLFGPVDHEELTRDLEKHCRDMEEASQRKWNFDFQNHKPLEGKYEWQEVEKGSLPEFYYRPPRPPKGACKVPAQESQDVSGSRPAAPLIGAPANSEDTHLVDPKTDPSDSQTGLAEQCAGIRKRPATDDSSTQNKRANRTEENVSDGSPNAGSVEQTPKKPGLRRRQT

- p27 Y74 phosphorylation by Brk [1]: not affected
- p27 Y88 phosphorylation by Brk [1]: decreased
B1: Alt-Brk: alternative splice variant of Brk (SEQ ID NO: 17), 15 KD protein with SH3 domain, lacks kinase domain (protein, listed as Homo sapiens)
chain: MVSRDQAHLGPKYVGLWDFKSRTDEELSFRAGDVFHVARKEEQWWWATLLDEAGGAVAQGYVPHNYLAERETVESEPAGHAGCAALQDLAACRGPAAPERGGVLPQPARACELPQGPEPVPRPAAGRALPEARA
- time arrested before escape (proliferation) [2]: 18 days

— US11260100B2, “Compositions targeting the interaction domain between p27Kip1 and Brk and methods of use thereof to inhibit p27 Y phosphorylation and cdk4 activity” (The Research Foundation for the State University of New York, priority 2014, dated 2022)
